In article PMC13625576:

Tests used:
Assay in all cases: SPR
[1] = molecular target: 14A Fab G32R mutant (mouse)
[2] = molecular target: 16A Fab R32G mutant (mouse)
[3] = molecular target: 16A Fab W34F mutant (mouse)

koff [1] [s⁻¹]	kon [1] [M⁻¹ s⁻¹]	Kd [2] [nM]	koff [2] [s⁻¹]	kon [2] [M⁻¹ s⁻¹]	Kd [3] [nM]	koff [3] [s⁻¹]	kon [3] [M⁻¹ s⁻¹]	Kd [1] [nM]	Substance
0.00159	314000	22.9	0.00823	359000	1220	0.09	73600	–	Thr-glycosylated MUC1 peptide RPAPGST(GalNAc)APPAHG
0.0229	180000	168	0.0294	174000	3910	0.337	86200	128	Ser-glycosylated MUC1 peptide RPAPGS(GalNAc)TAPPAHG
0.00137	303000	–	0.00183	534000	1130	0.0901	79700	4.5	doubly glycosylated MUC1 peptide RPAPGS(GalNAc)T(GalNAc)APPAHG
0.0233	191000	326	0.0532	163000	3430	0.295	86200	122	nonglycosylated MUC1 peptide …
